The results in this text go back to paper PMC11348266.

The test concerns the target GRA4 (UniProt Q27002). Briefly: exogenous co-IP. Particulars: reference: wild type TBK1; sites S172.

As to TBK1 (from UniProt Q9UHD2) TBK1 S172A, the “binding against the reference” value is on record as “weaker”.
